Laboratory results reported in patent publication US20100222269A1 (Novo Nordisk, published 2010).
Starred links: 1 amine or outer side, 2 acyl side, 3 side chain; linkers in the order of their positions; H or OH if unused. Positions of bridges follow the written chain, without caps; N, C: chain ends. Non-standard residues stand in square brackets, D forms with d. Groups on a side chain read outwards from the residue. No end group written: not given here. *: point of attachment. C20 diacid = O=C(O)CCCCCCCCCCCCCCCCCCC(=O)*; C18 diacid = O=C(O)CCCCCCCCCCCCCCCCC(=O)*; γGlu = O=C(O)[C@H](CCC(=O)[*:2])N[*:1]; AEEA = NCCOCCOCC(=O)O

These binders were tested against Amylin 3(a) receptor (human calcitonin receptor (CTa) with RAMP-3) on BHK570 cells (human, UniProt P30988 25-474) (assay: cell-based or functional assay).
Amylin 3(a) receptor (human calcitonin receptor (CTa) with RAMP-3) on BHK570 cells, sequence (P30988 25-474): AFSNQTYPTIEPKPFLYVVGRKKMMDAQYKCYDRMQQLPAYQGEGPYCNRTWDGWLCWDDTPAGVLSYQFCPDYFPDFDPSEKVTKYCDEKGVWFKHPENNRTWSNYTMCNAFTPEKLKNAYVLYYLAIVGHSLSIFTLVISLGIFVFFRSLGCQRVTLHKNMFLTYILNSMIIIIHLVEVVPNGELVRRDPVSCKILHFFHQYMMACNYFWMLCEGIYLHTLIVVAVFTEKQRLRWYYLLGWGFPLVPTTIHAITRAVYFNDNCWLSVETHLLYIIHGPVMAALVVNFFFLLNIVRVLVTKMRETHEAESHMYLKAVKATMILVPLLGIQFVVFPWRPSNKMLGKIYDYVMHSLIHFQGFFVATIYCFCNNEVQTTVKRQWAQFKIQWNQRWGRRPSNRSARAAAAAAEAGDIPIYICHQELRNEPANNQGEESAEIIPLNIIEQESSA

Potency luciferase assay	Binder
0.04 nM	CK([γGlu-4‑(16-1H-tetrazol-5-ylhexadecanoylsulfamoyl)butyryl])TATCATQRLANFLVHSSNNFGPILPPTNVGSNTY-NH2 (disulfide 1-6 (inferred))
0.1 nM	KCNTATCATQRLANFLK([AEEA-AEEA-C20 diacid])HSSNNFGPILPPTNVGSNTY-NH2 (disulfide 2-7 (inferred))
0.2 nM	KCNTATCATQRLANFLVHSSNNFGPILPK([AEEA-AEEA-C20 diacid])TNVGSNTY-NH2 (disulfide 2-7 (inferred))
0.4 nM	{C20 diacid}-EER[AEEA]ECNTATCATQRLANFLVHSSNNFGPILPPTNVGSNTY-NH2 (disulfide 6-11 (inferred))
0.1 nM	KCNTATCATQRLANFLVHSSK([AEEA-AEEA-C20 diacid])NFGPILPPTNVGSNTY-NH2 (disulfide 2-7 (inferred))
0.1 nM	{C20 diacid-γGlu}-RRCNTATCATQRLANFLVHSSNNFGPILPPTNVGSNTY-NH2 (disulfide 3-8 (inferred)) [N-alpha-[(S)-4-carboxy-4-(19-carboxynonadecanoylamino)butyryl]-Arg-[Arg1]-pramlintide (1-37)]
0.1 nM	{C20 diacid-γGlu}-CNTATCATQRLANFLVHSSNNFGPILPPTNVGSNTY-NH2 (disulfide 1-6 (inferred)) [N-alpha-[(S)-4-carboxy-4-(19-carboxynonadecanoylamino)butyryl]-pramlintide (2-37)]
0.07 nM	{C20 diacid}-EKRCNTATCATQRLANFLVHSSNNFGPILPPTNVGSNTY-NH2 (disulfide 4-9 (inferred)) [N-alpha-(19-carboxynonadecanoyl)-Glu-Lys-[Arg1]-pramlintide (1-37)]
0.1 nM	{C20 diacid}-ERCNTATCATQRLANFLVHSSNNFGPILPPTNVGSNTY-NH2 (disulfide 3-8 (inferred)) [N-alpha-(19-carboxynonadecanoyl)-Glu-[Arg1]-pramlintide (1-37)]
0.06 nM	{C18 diacid}-EERECNTATCATQRLANFLVHSSNNFGPILPPTNVGSNTY-NH2 (disulfide 5-10 (inferred)) [N-alpha-(17-carboxyheptadecanoyl)-Glu-Glu-Arg-[Glu1]pramlintide (1-37)]
0.1 nM	{C20 diacid-γGlu}-KKCNTATCATQRLANFLVHSSNNFGPILPPTNVGSNTY-NH2 (disulfide 3-8 (inferred)) [N-alpha-[(S)-4-carboxy-4-(19-carboxynonadecanoylamino)butyryl]-Lys-pramlintide (1-37)]
0.2 nM	{C20 diacid-γGlu}-RKCNTATCATQRLANFLVHSSNNFGPILPPTNVGSNTY-NH2 (disulfide 3-8 (inferred)) [N-alpha-[(S)-4-carboxy-4-(19-carboxynonadecanoylamino)butyryl]-Arg-pramlintide (1-37)]
2 nM	EERECNTATCATQRLANFLVHSSNNFGPILPPTNVGSNTY-NH2 (disulfide 5-10 (inferred); not fully specified (N-terminus))
5 nM	KCNTATCATQRLANFLVHSSNNFGPILPK(C20 diacid)TNVGSNTY-NH2 (disulfide 2-7 (inferred)) [N-epsilon29-(19-carboxynonadecanoyl)-[Lys29]-pramlintide (1-37)]
0.08 nM	{C20 diacid}-EKRKCNTATCATQRLANFLVHSSNNFGPILPPTNVGSNTY-NH2 (disulfide 5-10 (inferred)) [N-alpha-(19-carboxynonadecanoyl)-Glu-Lys-Arg-pramlintide (1-37)]
0.04 nM	{C20 diacid-γGlu}-RCNTATCATQRLANFLVHSSNNFGPILPPTNVGSNTY-NH2 (disulfide 2-7 (inferred)) [N-alpha-[(S)-4-carboxy-4-(19-carboxynonadecanoylamino)butyryl]-[Arg1]-pramlintide (1-37)]
